Reference: the Human Domainome abundance scans (Beltran et al. 2025)

B1: TGF-beta-activated kinase 1 and MAP3K7-binding protein 3, residues 12 to 50; numbered along this chain, Q8N5C8 (parent)
chain: VLHDLRQRFPEIPEGVVSQCMLQNNNNLEACCRALSQES
B2: Tumor protein 63, residues 545 to 610; numbered along this chain, Q9H3D4 (parent)
chain: TDCSIVSFLARLGCSSCLDYFTTQGLTTIYQIEHYSMDDLASLKIPEQFRHAIWKGILDHRQLHEF

Variants of: B1
Assay: abundance fitness (aPCA) (normalised: wild type 0, dead -1); higher = more abundant; growth selection in yeast, the domain comes from the species named
Settings: Homo sapiens

Abundance fitness, by site and new letter:
R33: V -0.115 | C -0.451 | F -0.271 | G -0.454 | S -0.174 | P -0.731 | Y -0.459 | K -0.023 | E -0.056 | H -0.137 | A 0.04 | T -0.127 | Q -0.017 | N -0.315 | D -0.239 | W -0.259
Q23: D 0.271 | M -0.105 | R -0.06 | H 0.168 | P -0.787 | V -0.167 | E 0.215 | I -0.649 | L -0.108 | K -0.189 | A 0.107 | S -0.206 | N -0.046 | G -0.722 | T -0.275
S36: Y -0.489 | D -0.018 | R -0.031 | V -0.365 | A 0.08 | W -0.571 | L -0.186 | E 0.166 | C -0.315 | I -0.108 | K -0.014 | M -0.095 | H -0.314 | G -0.194
L22: Y -0.213 | W -0.292 | T 0.026 | V 0.012
N24: E -0.329 | Q -0.623 | T -0.871 | L -0.73 | K -0.843 | C -0.351 | P -0.989 | W -0.638 | V -0.894 | G -0.878 | A -0.747 | M -0.679 | S -0.848 | R -1.08 | H 0.178
N25: V -0.904 | Q -0.306 | D -0.015 | C -0.5 | G -0.108 | R -0.39 | P -0.615 | M -0.548 | S -0.365 | A -0.425 | T -0.788 | W -0.819
E38: L 0.14 | Q 0.145 | R 0.1 | S -0.046 | M 0.224 | P -0.029 | D -0.045 | H 0.11 | C 0.058 | F 0.109 | W 0.264 | K 0.014 | T -0.118 | Y 0.093 | G -0.069 | V -0.073
C32: L -0.291 | N 0.023 | M -0.076 | R -0.589 | F -0.579 | H -0.171 | V 0.176 | G -0.575 | P -0.664 | S -0.226 | Q -0.368 | D -0.484 | Y -0.246 | A -0.21 | E -0.176
A30: P -0.716 | V -0.55 | G -0.599 | M -0.178 | R -0.348 | K -0.214 | Q -0.178 | W -0.794 | I -0.838 | E -0.081 | S -0.402 | N -0.174 | H -0.248 | C -0.684 | T -0.568
C31: K -0.513 | E -0.467 | G -0.555 | M -0.732 | A -0.551 | T -0.219 | Q -0.786 | R -0.79 | W -0.965 | I -0.718 | S -0.545 | D 0.122 | Y -0.895 | V -0.495 | L -0.914 | P -0.64
Q37: C -0.129 | F -0.384 | M 0.043 | N 0.151 | A 0.084 | Y -0.345 | R -0.003 | V -0.122 | W -0.372 | L 0.041 | H -0.162 | T -0.05 | S -0.014 | D -0.042 | G 0.009 | P -0.537 | E 0.102 | I -0.107 | K 0.107
N27: A -0.643 | S -0.478 | L -1.12 | R -0.607 | G -0.78 | W -0.835 | V -0.764 | K -0.651 | H -0.605 | Q -0.398 | C -0.831 | P -0.856 | T -1.01
L28: E -0.471 | D -0.829 | R -0.437 | M -0.262 | S -0.629 | A -0.484 | W 0.007 | G -0.605 | Q -0.527 | H -0.285 | V -0.221 | T -0.684 | C -0.587 | P -0.313
S39: C -0.083 | P -0.041 | A -0.255 | K 0.052 | W -0.137 | L -0.045 | F -0.213 | R 0.121 | Y -0.002 | E -0.104 | M -0.077 | T 0.249 | Q 0.039 | G 0.001
A34: S -0.342 | W -0.398 | G -0.73 | M -0.168 | T -0.297 | Y -0.328 | H -0.117 | N -0.819 | C -0.373 | K -0.353 | Q 0.028 | L -0.413 | I -0.04 | V -0.135 | R -0.49 | E -0.056 | D -0.178
N26: S -0.289 | M -0.317 | E -0.475 | V -0.816 | F 0.164 | H -0.316 | L -0.685 | C -0.365 | A -0.498 | G -0.144 | D -0.435 | R -0.746 | W -0.808 | P -1.32 | K -0.799
L35: S -0.745 | E -0.504 | M -0.879 | A -0.793 | C -0.6 | F -0.697 | K -0.808 | R -0.811 | P -0.488 | Q -0.629 | T -0.603 | W -0.819 | V -0.924 | H -0.469 | D -0.784
E29: L -0.201 | V -0.895

Variants of: B2
Assay: as above
Settings: Homo sapiens

Abundance fitness: each site, then its substitutions
T1: E -0.021 | A -0.064 | Q -0.033 | I -0.006 | M -0.041 | V -0.058 | F -0.034 | S -0.047 | G -0.027 | K -0.122 | W -0.047 | Y -0.074 | P -0.458 | C -0.063 | R -0.199 | N -0.04 | H -0.361 | D -0.039
C3: W -0.082 | D -0.043 | H -0.08 | M -0.005 | I -0.029 | N -0.021 | T -0.015 | L -0.033 | S -0.011 | F -0.018 | A -0.098 | Y 0 | K -0.075 | V -0.15 | G -0.069 | Q -0.031 | R -0.051
V6: C -0.111 | E -0.067 | A 0.028 | D -0.013
S4: G -0.104 | T -0.04 | Q -0.078 | Y -0.164 | D -0.05 | H -0.114 | P -0.17 | C -0.16 | L -0.038 | V -0.632 | F -0.158 | W -0.224 | K -0.075 | E -0.066 | M -0.063
I5: H -0.647 | V -0.096 | M -0.021 | E -0.976 | Q -0.973 | G -0.878 | D -0.997 | N -0.915 | R -1.01 | L -0.005 | S -0.856 | T -0.479 | P -1.04 | K -0.921 | Y -0.971 | F -0.362
D2: N -0.053 | H -0.17 | T -0.185 | Y -0.182 | Q -0.127 | L -0.338 | K -0.099 | G -0.11 | E -0.079 | R -0.202 | C -0.19 | W -0.275 | F -0.184 | A -0.147 | V -0.22 | S -0.101 | P -0.132
